Test results taken from article PMC8170004 (iScience, 2021).

Tests used:
Human GDF8, biotinylated = biological target: T1, Human GDF8, biotinylated (human, UniProt O14793 267-375, biotin (Biotin Labeling Kit-NH2)); experiment: ELISA
T1 sequence: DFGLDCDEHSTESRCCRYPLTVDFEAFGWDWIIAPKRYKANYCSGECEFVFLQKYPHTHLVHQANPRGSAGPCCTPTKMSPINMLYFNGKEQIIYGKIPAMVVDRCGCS

[1] = biological target: T2, Human GDF11, biotinylated (human, UniProt O95390 299-407, biotin (Biotin Labeling Kit-NH2)); experiment: ELISA
T2 sequence: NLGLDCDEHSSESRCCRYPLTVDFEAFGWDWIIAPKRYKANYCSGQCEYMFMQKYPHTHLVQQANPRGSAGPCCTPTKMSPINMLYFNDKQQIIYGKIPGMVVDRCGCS

B1: Bivalent Human FSTL3-Fc (Fc fusion)
chain: MGSGNPAPGGVCWLQQGQEATCSLVLQTDVTRAECCASGNIDTAWSNLTHPGNKINLLGFLGLVHCLPCKDSCDGVECGPGKACRMLGGRPRCECAPDCSGLPARLQVCGSDGATYRDECELRAARCRGHPDLSVMYRGRCRKSCEHVVCPRPQSCVVDQTGSAHCVVCRAAPCPVPSSPGQELCGNNNVTYISSCHMRQATCFLGRSIGVRHAGSCAGTPEEPPGGESAEEEENFV
Question: Which results are given for B1?
Answer: binding result (Human GDF8, biotinylated): binds; binding result [1]: binds
